B1: PTPRD (parent)
chain: ELDELLKEISRKRRSIRYGREVEL

Variants of: B1
Test: protein stability index of a GFP-peptide fusion (GPS, HEK-293T) (PSI 1-6); higher = more stable
Details: c terminus: a fixed tail appended
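Also: lentivirally expressed fusions sorted by FACS into six bins by GFP to DsRed ratio, PSI derived from sequencing read proportions per bin multiplied by bin number.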

Protein stability index: each site, then its substitutions
I16: F 1.81 | T 2.57 | E 3.62 | Y 1.75 | W 1.8 | V 2.35 | C 2.81 | G 3.21 | N 2.98 | P 2.43 | R 1.72 | K 1.9 | A 1.9 | H 2.37 | S 3.4 | M 2.54 | Q 3.12 | L 2.42
D3: A 1.76 | Y 2.12 | G 1.67 | I 3.46 | Q 2.62 | F 2.12 | E 2.51 | L 1.63 | P 2.26 | H 2.48 | S 2.57 | W 1.75 | N 3.35 | K 2.38 | T 1.8 | C 1.73 | M 1.65 | R 1.86
S10: I 2.09 | N 2.77 | T 2.49 | E 2.84 | C 3.15 | K 2.17 | G 2.44 | A 2.44 | Y 2.06 | M 2.24 | P 3.01 | L 1.41 | Q 2.2 | H 2.68 | V 2.48 | F 1.78 | W 1.48 | R 2.48 | D 2.87
L5: P 3.82 | I 2.45 | K 3.61 | M 3.25 | H 4.08 | S 3.6 | A 3.07 | N 2.69 | F 2.69 | Y 3.44 | V 2.86 | W 2.35 | D 3.73 | G 3.96 | C 3.12 | Q 4.14 | T 3.58 | R 3.18 | E 4.15
R11: E 3.19 | D 4.06 | Y 2.62 | F 2.76 | Q 2.55 | T 3.21 | W 2.3 | N 2.34 | I 2.45 | C 2.94 | A 2.01 | P 3.04 | M 2.15 | G 2.01 | K 1.84 | H 2.45 | L 3.04 | V 3.18 | S 2.49
E8: H 1.99 | P 2.77 | F 2 | Q 2.81 | K 3.79 | N 2.44 | D 2.92 | A 1.68 | T 2.79 | L 2.03 | Y 1.88 | G 2.86 | I 2.83 | V 1.7 | C 1.83 | M 2.37 | R 2.54 | W 2.64 | S 2.45
E4: I 1.73 | K 2.59 | A 3.26 | F 2.39 | P 2.48 | V 1.94 | T 1.88 | Y 1.27 | S 1.85 | H 2.6 | G 3.34 | D 2.07 | M 1.9 | L 2.19 | W 2.29 | R 2.16 | C 1.57 | Q 1.99
K7: E 3.1 | R 2.27 | Y 2.77 | F 2 | N 2.16 | V 2.07 | C 2.33 | T 3.09 | G 2.54 | D 3.25 | M 2.26 | L 2.72 | P 3.12 | S 2.6 | H 2.4 | A 2.83 | I 2.27 | Q 2.46 | W 2.19
L6: I 1.93 | M 2.68 | W 1.5 | G 4.21 | N 3.81 | E 4.28 | P 4.08 | H 3.19 | F 2.07 | T 3.92 | V 3.8 | A 3.65 | S 3.98 | K 3.92 | R 3.76 | D 4.29 | Y 2.71 | Q 3.73 | C 3.29
R14: D 2.65 | W 1.73 | F 1.96 | C 2.19 | Y 1.66 | E 2.73 | K 2.39 | Q 2.55 | V 2.42 | T 2.38 | H 2.92 | I 1.99 | S 2.9 | A 2.02 | P 2.64 | M 2.03 | L 3.77 | N 2.1 | G 3.16
I9: E 4.46 | W 2.89 | T 3.97 | R 3.72 | L 2.21 | V 2.61 | P 3.81 | F 2.33 | S 3.62 | A 3.14 | Q 4.18 | M 2.64 | H 3.09 | N 3.35 | C 2.54 | D 3.98 | G 3.57 | Y 2.63 | K 3.96
R13: L 1.46 | F 2.06 | M 2.21 | E 3.07 | T 2.28 | I 2.23 | G 2.96 | N 3 | D 4.49 | C 1.8 | V 1.55 | K 2.54 | H 2.14 | A 2.38 | S 3.25 | W 1.72 | Y 1.43 | P 3.3 | Q 2.36
Y18: L 2.59 | E 2.96 | N 2.74 | T 2.17 | H 2.33 | P 2.78 | S 2.91 | R 2.33 | F 2.33 | C 1.67 | Q 2.43 | D 2.6 | G 2.51 | A 2.13 | M 2.22 | K 2.46 | I 2.35
S15: E 2.65 | H 2.89 | K 1.88 | I 2.29 | L 2.04 | Q 3.4 | M 2.54 | N 2.65 | W 1.59 | A 2.45 | F 2.27 | T 2.99 | R 2.22 | Y 2.65 | D 1.91 | G 2.44 | V 2.29 | P 2.6
L2: S 2.99 | A 3.79 | I 2.6 | F 2.49 | G 3.58 | P 3.47 | W 2.99 | Q 4.26 | D 4.14 | K 4.09 | E 4.41 | R 3.71 | T 3.38 | H 4.32 | Y 3.54 | V 2.43 | N 4.2 | M 2.92 | C 3.06
K12: P 2.53 | H 2.03 | V 2.23 | C 2.49 | W 1.66 | Y 1.55 | T 2.56 | M 2.11 | A 1.99 | G 2.26 | F 1.29 | E 2.32 | Q 1.81 | S 2.63 | L 1.95 | D 2.39 | R 2.49 | I 1.66
R17: W 1.85 | V 2.27 | D 3.33 | S 2.44 | E 2.64 | I 2.46 | C 2.34 | A 2.39 | H 2.06 | F 1.63 | P 2.97 | L 2.55 | N 2.75 | M 2.12 | G 2.19 | T 2.15 | K 2.17 | Q 2.68 | Y 2.6
E1: F 1.83 | R 2.17 | S 4.1 | D 2.3 | A 2.54 | L 1.98 | Q 2.41 | M 2.73 | V 1.93 | N 2.56 | P 3.07 | W 2.69 | G 2.52 | H 2.47 | K 2.26 | I 1.77 | C 2.07 | T 3.25

Reference: the supplement of paper PMC10567573
